This sample holds only a part of the variants without activity.
Tests used:
biotinyl-Phe-oxazolone = experiment: self-aminoacylation, catalytic enhancement (BFO) (fold over background); higher = more active; k-Seq, kA / k0A0; sequences stand for … in GGGAAUGGAUCCACAUCUACGAAUUC…UUCACUGCAGACUUGACGAAGCUG
In short: (§1)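 Mutagenized RNA pools (0.43 μM; 21-nt variable region) were treated with 2–1250 μM of each biotinyl-aminoacyl-oxazolone. Conditions were 50 μL HEPES/NaCl/KCl/MgCl2/CaCl2 buffer, 5% acetonitrile, pH 6.9–7.0, room temperature, 90 minutes. Catalytic enhancement, the median kA relative to the uncatalyzed rate, was derived from streptavidin capture, qPCR and Illumina sequencing.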

biotinyl-Ile-oxazolone = experiment: self-aminoacylation, catalytic enhancement (BIO) (fold over background); higher = more active; k-Seq, kA / k0A0; sequences stand for … in GGGAAUGGAUCCACAUCUACGAAUUC…UUCACUGCAGACUUGACGAAGCUG
In short: as §1

biotinyl-Met-oxazolone = experiment: self-aminoacylation, catalytic enhancement (BMO) (fold over background); higher = more active; k-Seq, kA / k0A0; sequences stand for … in GGGAAUGGAUCCACAUCUACGAAUUC…UUCACUGCAGACUUGACGAAGCUG
In short: as §1

biotinyl-Val-oxazolone = experiment: self-aminoacylation, catalytic enhancement (BVO) (fold over background); higher = more active; k-Seq, kA / k0A0; sequences stand for … in GGGAAUGGAUCCACAUCUACGAAUUC…UUCACUGCAGACUUGACGAAGCUG
In short: as §1

biotinyl-Leu-oxazolone = experiment: self-aminoacylation, catalytic enhancement (BLO) (fold over background); higher = more active; k-Seq, kA / k0A0; sequences stand for … in GGGAAUGGAUCCACAUCUACGAAUUC…UUCACUGCAGACUUGACGAAGCUG
In short: as §1

biotinyl-Trp-oxazolone = experiment: self-aminoacylation, catalytic enhancement (BWO) (fold over background); higher = more active; k-Seq, kA / k0A0; sequences stand for … in GGGAAUGGAUCCACAUCUACGAAUUC…UUCACUGCAGACUUGACGAAGCUG
In short: as §1

Sequence	self-aminoacylation (biotinyl-Phe-oxazolone)	self-aminoacylation (biotinyl-Ile-oxazolone)	self-aminoacylation (biotinyl-Met-oxazolone)	self-aminoacylation (biotinyl-Val-oxazolone)	self-aminoacylation (biotinyl-Leu-oxazolone)	self-aminoacylation (biotinyl-Trp-oxazolone)
AUCCACCUAGGGCAUCGGGUG [Fam2.2 aminoacylation ribozyme variant]	22.1	3.45	4.46	4.02	5.15	4.35
AUCCACCUAGGUCAACGGGUG [Fam2.2 aminoacylation ribozyme variant]	30.3	2.4	3.17	3.34	4.15	4.49
AUCCACCUAGGUCACCGGGUG [Fam2.2 aminoacylation ribozyme variant]	40.4	4.14	5.52	4.47	6.1	6.67
AUCCACCUAGGUCAUCGAGUG [Fam2.2 aminoacylation ribozyme variant]	17.4	6.55	7.89	5.17	10.3	5.78
AUCCACCUAGGUCAUCGGAUG [Fam2.2 aminoacylation ribozyme variant]	0.726	1.4	1.19	1.65	1.11	1.04
AUCCACCUAGGUCAUCGGCUG [Fam2.2 aminoacylation ribozyme variant]	9.73	1.95	1.72	2.29	2.87	2.44
AUCCACCUAGGUCUUCGGGUG [Fam2.2 aminoacylation ribozyme variant]	37.1	4.4	5.09	6.01	6.56	6.45
AUCCACCUAGGUGAUCGGGUG [Fam2.2 aminoacylation ribozyme variant]	35.5	4.38	6.1	4.45	5.68	5.98
AUCCACCUAGGUUAUCGGGUG [Fam2.2 aminoacylation ribozyme variant]	32.1	3.44	4.13	4.45	4.84	5.62
AUCCACCUAUGUCAUCGGGUG [Fam2.2 aminoacylation ribozyme variant]	49.9	4.42	6.38	4.12	7.91	5.8
AUCCAUCUAGGUCAUCGGGUG [Fam2.2 aminoacylation ribozyme variant]	29.6	4.35	7.36	3.94	6.36	5.63
AUCGCCCUGGUCAUCGAGUGA [Fam2.1 aminoacylation ribozyme variant]	98.5	7.09	16.5	7.32	16	17.8
AUCUACCUAGGUCAUCGGGUG [Fam2.2 aminoacylation ribozyme variant]	51.1	6.54	10	6.18	12.1	8.66
AUCUCCCUGGUCAUCGAGUGA [Fam2.1 aminoacylation ribozyme variant]	27.2	4.57	9.05	4.7	9.06	10.2
AUGACACUGGUCAUCGAGUGA [Fam2.1 aminoacylation ribozyme variant]	25.8	3.42	5.48	3.05	6.42	6.47
AUGACCCUGGACAUCGAGUGA [Fam2.1 aminoacylation ribozyme variant]	15.9	2.27	5.12	2.11	3.95	5.26
AUGACCCUGGUCACCGAGUGA [Fam2.1 aminoacylation ribozyme variant]	45.5	3.68	10.5	5.03	11.7	9.23
AUGACCCUGGUCAUCCAGUGA [Fam2.1 aminoacylation ribozyme variant]	38.6	3.84	6.57	3.16	7.02	7.7
AUGACCCUGGUCAUCGAGUAA [Fam2.1 aminoacylation ribozyme variant]	31.5	3.71	10.1	3.51	10.2	8.31
AUGACCCUGGUCAUCGAGUGU [Fam2.1 aminoacylation ribozyme variant]	692	20.6	89.5	23.7	85.3	64.9
AUGACCCUGGUCCUCGAGUGA [Fam2.1 aminoacylation ribozyme variant]	22.1	1.88	3.2	1.77	3.2	3.81
AUGACCCUGGUUAUCGAGUGA [Fam2.1 aminoacylation ribozyme variant]	15.5	3.39	6.78	3.36	7.14	8.52

Sequence	self-aminoacylation (biotinyl-Phe-oxazolone)	self-aminoacylation (biotinyl-Ile-oxazolone)	self-aminoacylation (biotinyl-Met-oxazolone)	self-aminoacylation (biotinyl-Val-oxazolone)	self-aminoacylation (biotinyl-Leu-oxazolone)	self-aminoacylation (biotinyl-Trp-oxazolone)
AUGACCGUGGUCAUCGAGUGA [Fam2.1 aminoacylation ribozyme variant]	39.7	3.34	6.71	3.22	7.27	7.37
AUGCAACUAGGUCAUCGGGUG [Fam2.2 aminoacylation ribozyme variant]	56.2	6.38	8.13	5.58	9.82	8.26
AUGCACAUAGGUCAUCGGGUG [Fam2.2 aminoacylation ribozyme variant]	73.3	6.5	10.5	6.08	10.2	10.4
AUGCACCUAGGUCAUCGGGCG [Fam2.2 aminoacylation ribozyme variant]	13.5	2.08	2.37	2.47	3.22	2.53
AUGCACCUAGGUCAUUGGGUG [Fam2.2 aminoacylation ribozyme variant]	16.6	2.33	2.3	2.16	2.53	2.72
AUGCACCUAGGUCUUCGGGUG [Fam2.2 aminoacylation ribozyme variant]	40	3.64	4.93	4.2	4.14	5.59
AUGCACCUAGGUUAUCGGGUG [Fam2.2 aminoacylation ribozyme variant]	32.7	3.4	3.37	3.11	4.46	4.81
AUGCAGCUAGGUCAUCGGGUG [Fam2.2 aminoacylation ribozyme variant]	24.9	2.95	3.73	3.61	4.37	3.92
AUGCUUGCUAAUAGUCGCAAG [Fam3.1 aminoacylation ribozyme variant]	3.19	1.81	1.61	1.32	1.33	1.99
AUGUUUGAUAAUAGUCGCAAG [Fam3.1 aminoacylation ribozyme variant]	1.59	1.65	1.35	1.17	1.09	1.45
AUGUUUGCUAACAGUCGCAAG [Fam3.1 aminoacylation ribozyme variant]	5.92	1.59	1.61	1.43	1.49	3.34
AUGUUUGCUAAUAGUCGCUAG [Fam3.1 aminoacylation ribozyme variant]	1.82	1.19	1.06	1.08	1.06	1.28
AUUAACCUACGUCAUCGGGUG [Fam2.2 aminoacylation ribozyme variant]	47.5	3.99	6.52	3.84	8.3	5.8
AUUAACCUAGGGCAUCGGGUG [Fam2.2 aminoacylation ribozyme variant]	14.1	2.45	2.86	2.15	3.09	2.76
AUUAACCUAGGUCAUCCGGUG [Fam2.2 aminoacylation ribozyme variant]	29.5	3.59	5.02	3.29	4.91	5.68
AUUAACCUAGGUCAUCGGCUG [Fam2.2 aminoacylation ribozyme variant]	4.37	1.35	1.49	1.59	1.35	1.57
AUUAACCUAGGUCAUCGGGAG [Fam2.2 aminoacylation ribozyme variant]	1.18	1.14	0.94	1.14	1.34	0.979
AUUAACCUAGGUCCUCGGGUG [Fam2.2 aminoacylation ribozyme variant]	18	2.58	4.07	2.81	4.72	3.09
AUUAACCUAGGUUAUCGGGUG [Fam2.2 aminoacylation ribozyme variant]	17.9	2.5	3.1	2.19	3.46	2.84
AUUAACCUGCUCAUCGAGUGA [Fam2.1 aminoacylation ribozyme variant]	2.51	1.55	2.38	1.86	2.5	2.54
AUUAACCUGGUCAUCGAAUGA [Fam2.1 aminoacylation ribozyme variant]	0.933	1.07	0.959	1.07	1.09	0.742

Reference: the supplement of paper PMC9233669
